Experiment [1] concerns the target T1, huIL-27 (Homo sapiens, UniProt Q14213+Q8NEV9).
T1 construct: purchased R&D Systems
T1 sequence (Q8NEV9 29-243): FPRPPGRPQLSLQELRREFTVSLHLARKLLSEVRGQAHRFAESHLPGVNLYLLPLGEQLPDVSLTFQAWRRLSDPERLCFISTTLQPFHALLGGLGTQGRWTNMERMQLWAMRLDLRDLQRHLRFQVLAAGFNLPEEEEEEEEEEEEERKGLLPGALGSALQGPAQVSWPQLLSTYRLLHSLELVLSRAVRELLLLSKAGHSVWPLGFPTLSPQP
T1 sequence (Q14213 21-229): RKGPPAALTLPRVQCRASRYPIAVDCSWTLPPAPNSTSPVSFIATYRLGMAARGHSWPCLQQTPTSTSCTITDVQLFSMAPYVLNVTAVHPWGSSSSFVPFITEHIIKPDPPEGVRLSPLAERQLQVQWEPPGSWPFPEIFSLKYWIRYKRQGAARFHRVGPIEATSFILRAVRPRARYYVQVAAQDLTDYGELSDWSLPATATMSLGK
Briefly: Phospho-STAT3 (BIO-PLEX) neutralization of IL-27 by soluble receptors, total human PBMCs. It counts as cell-based. The settings on record: ligand huIL-27 at EC90 (2 nM). The text has this: (§1) Whole mouse spleens were harvested from C57 B1/6 mice and washed two times with 1×PBS before being plated out at 2×10^5 cells/well in assay media (RPMI 1640 plus 10% fetal bovine serum) in 96-well, round-bottom tissue culture plates. Total human PBMC (peripheral blood mononuclear cells) were thawed from a frozen vial collected from a leukapherisis donation and washed two times with 1×PBS before being plated out at 10^6 cells/well in assay media in 96-well, round-bottom tissue culture plates. […] Following pre-incubation, treatments were added to the plates containing the cells and incubated together at 37° C. for 15 minutes.
(§2) Following incubation, cells were washed with ice-cold wash buffer (BIO-PLEX Cell Lysis Kit, BIO-RAD Laboratories, Hercules, Calif.) and put on ice to stop the reaction according to manufacturer's instructions. […]
(§3) Capture beads (BIO-PLEX Phospho-Stat3 Assay, BIO-RAD Laboratories) were combined with 50 μL of 1:1 diluted lysates and added to a 96-well filter plate according to manufacture's instructions (BIO-PLEX Phosphoprotein Detection Kit, BIO-RAD Laboratories). […] After the final wash, beads were resuspended in 125 μL/well of bead suspension buffer, shaken for 30 seconds, and read on an array reader (BIO-PLEX, BIO-RAD Laboratories) according to the manufacture's instructions. Data were analyzed using analytical software (BIO-PLEX MANAGER 3.0, BIO-RAD Laboratories). […]

The target in experiment [2] is T2, muIL-27 (Mus musculus, UniProt O35228+Q8K3I6).
T2 construct: purchased R&D Systems
T2 sequence (Q8K3I6 29-234): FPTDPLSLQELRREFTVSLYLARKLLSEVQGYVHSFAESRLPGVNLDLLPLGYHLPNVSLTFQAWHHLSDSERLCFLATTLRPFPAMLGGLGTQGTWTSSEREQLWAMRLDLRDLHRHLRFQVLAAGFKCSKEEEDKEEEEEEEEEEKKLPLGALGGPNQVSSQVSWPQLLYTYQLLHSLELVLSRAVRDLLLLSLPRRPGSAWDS
T2 sequence (O35228 19-228): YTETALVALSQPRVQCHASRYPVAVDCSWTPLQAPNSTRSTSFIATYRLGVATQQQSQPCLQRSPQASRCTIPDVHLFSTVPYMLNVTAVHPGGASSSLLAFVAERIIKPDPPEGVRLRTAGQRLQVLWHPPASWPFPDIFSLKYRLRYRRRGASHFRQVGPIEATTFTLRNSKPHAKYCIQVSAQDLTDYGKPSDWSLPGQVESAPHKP
The experiment is described as above. The note with it: ligand muIL-27 at EC90 (2 nM). It counts as cell-based.
From the text: as §1, §2, §3

B1: IL-27RAm(mFc1): Extracellular domain of mouse IL27RA fused to a wild type BALB/c mouse gamma2a constant region Fc tag (protein)
chain: MNRLERVALARLETPRLEGLLELELESLEMSLELELEGTRPRHGSPRGPRLEQCYSVGPRLEGILENCSWGLPRLEGDLEGLTPRPRVLEYHQSQKYHPRNRVWGLVKVPRSKQSWVTIPRRGLQFTMADKLELEIWGTQKGRPRLEWSSVSVASNLEGLTQMKPRDTPRQIFSQVASPISGLGLATLEGLATVQWAPRPRVWPRPRQKALETCQFRYKGLCQAGLAWTRLEGLPRQLEKTDGLETPRVGLMQNLEGLPRGTCYQVSGRCQVGLNGYPRWGGLWSSPRLESFQTPRFLEDPRGLDVWVSGTVCGLTSGKRAALELEVWKDPRRPRCVQVTYTVWFGAGDITTTQGLGLVPRCCKSPRVPRAWMGLWAVVSPRGNSTSWVPRPRTNLESLEVCLEAPRGLSAPRCDVGVSSADGSPRGIKVTWKQGTARGSPRLEGLYVVASPWAQDGDSLEDKLENWTRLEPRPRGNLESTLELEPRGGLFKGGVPRYRITVTAVYSGGLEAAAPRSVWGFRGLGLLEVPRLEAGPRAVWRLEPRDDPRPRGTPRVVALAWGGLVPRRHQLERGQATHYTFCIQSRGLESTVCRNVSSQTQTATLEPRNLEHSGSFKLEWVTVSTVALAGQGPRPRGPRDLESLEHLEPRDNRIRWKALEPRWFLESLEWGLELELEMGCGLESLEASTRCLEQARCLEHWRHKLELEPRQWIWGLRVPRDPRANSNSGQPRYIKGLVSLEPRQPRPRKDGPRILEGLVGLGLVGLLEQPRVVGLSPRKASAPRIYSGYGLKHFLEPRTPRGLGLLEGLELEV
modifications: left off: a dimerising Fc or GST
notes: Extracellular domain of mouse IL27RA fused to a wild type BALB/c mouse gamma2a constant region Fc tag
As usually defined, the IC50 is the concentration needed to halve the response being measured. For the molecule B1, the values for the IC50 in experiment [1] and in experiment [2] were 1370 nM and 4.83 nM, respectively.

Source of the values: patent US20100093076A1, “SOLUBLE IL-27 RECEPTOR” (priority 2006, published 2010).
